Source: the MegaScale stability set (Tsuboyama et al. 2023)

B1: EHEE_rd4_0086 (parent)
chain: EIHIRTNGEEQARKVYKMLAKRNYDVKIEQHNGQWVVTAS

Variants of: B1
Assay: folding stability dG (cDNA display proteolysis); higher = more stable
Details: PBS, room temperature

Row | Variant | folding stability dG [kcal/mol]
1 | EIHIRTNGEEQARKVYKMLAKRNYDVKIEVHNGQWVVTAS | 2.22
2 | EIHIRTNGEEQARKVYKMLAKRNYDVKIEYHNGQWVVTAS | 2.3
3 | EIHIRTNGEEQARKVYKMLAKRNYDVKIEIHNGQWVVTAS | 2.1
4 | EIHIRTNGEEQARKVYKMLAKRNYDVKIEMHNGQWVVTAS | 1.81
5 | EIHIRTNGEEQARKVYKMLAKRNYDVKIELHNGQWVVTAS | 1.93
6 | EIHIRTNGEEQARKVYKMLAKRNYDVKIERHNGQWVVTAS | 1.81
7 | EIHIRTNGEEQARKVYKMLAKRNYDVKIEPHNGQWVVTAS | 0.717
8 | EIHIRTNGEEQARKVYKMLAKRNYDVKIETHNGQWVVTAS | 1.49
9 | EIHIRTNGEEQARKVYKMLAKRNYDVKIEDHNGQWVVTAS | 1.07
10 | EIHIRTNGEEQARKVYKMLAKRNYDVKIESHNGQWVVTAS | 1.58
11 | EIHIRTNGEEQARKVYKMLAKRNYDVKIEWHNGQWVVTAS | 1.8
12 | EIHIRTNGEEQARKVYKMLAKRNYDVKIEKHNGQWVVTAS | 1.88
13 | EIHIRTNGEEQARKVYKMLAKRNYDVKIEGHNGQWVVTAS | 0.999
14 | EIHIRTNGEEQARKVYKMLAKRNYDVKIEAHNGQWVVTAS | 1.33
15 | EIHIRTNGEEQARKVYKMLAKRNYDVKIEEHNGQWVVTAS | 1.85
16 | EIHIRTNGEEQARKVYKMLAKRNYDVKIEHHNGQWVVTAS | 1.93
17 | EIHIRTNGEEQARKVYKMLAKRNYDVKIENHNGQWVVTAS | 2.01
18 | EIHIRTNGEEQARKVYKMLAKRNYDVKIECHNGQWVVTAS | 2.32
19 | EIHIRTNGEEQARKVYKMLAKRNYDVKIEFHNGQWVVTAS | 2.38
20 | EIHIRTNGEEQARKVYKMLAKRNYDVKIHQHNGQWVVTAS | 1.78
21 | EIHIRTNGEEQARKVYKMLAKRNYDVKIYQHNGQWVVTAS | 2.48

Row | Variant | folding stability dG [kcal/mol]
22 | EIHIRTNGEEQARKVYKMLAKRNYDVKIMQHNGQWVVTAS | 1.93
23 | EIHIRTNGEEQARKVYKMLAKRNYDVKIVQHNGQWVVTAS | 1.98
24 | EIHIRTNGEEQARKVYKMLAKRNYDVKIIQHNGQWVVTAS | 1.97
25 | EIHIRTNGEEQARKVYKMLAKRNYDVKIQQHNGQWVVTAS | 1.82
26 | EIHIRTNGEEQARKVYKMLAKRNYDVKINQHNGQWVVTAS | 1.57
27 | EIHIRTNGEEQARKVYKMLAKRNYDVKIWQHNGQWVVTAS | 2.33
28 | EIHIRTNGEEQARKVYKMLAKRNYDVKIGQHNGQWVVTAS | 1.48
29 | EIHIRTNGEEQARKVYKMLAKRNYDVKILQHNGQWVVTAS | 1.75
30 | EIHIRTNGEEQARKVYKMLAKRNYDVKIAQHNGQWVVTAS | 1.8
31 | EIHIRTNGEEQARKVYKMLAKRNYDVKITQHNGQWVVTAS | 2.02
32 | EIHIRTNGEEQARKVYKMLAKRNYDVKISQHNGQWVVTAS | 1.99
33 | EIHIRTNGEEQARKVYKMLAKRNYDVKIDQHNGQWVVTAS | 1.26
34 | EIHIRTNGEEQARKVYKMLAKRNYDVKIFQHNGQWVVTAS | 2.44
35 | EIHIRTNGEEQARKVYKMLAKRNYDVKIRQHNGQWVVTAS | 1.68
36 | EIHIRTNGEEQARKVYKMLAKRNYDVKIKQHNGQWVVTAS | 1.6
37 | EIHIRTNGEEQARKVYKMLAKRNYDVKIEQINGQWVVTAS | 2.43
38 | EIHIRTNGEEQARKVYKMLAKRNYDVKIEQFNGQWVVTAS | 2.11
39 | EIHIRTNGEEQARKVYKMLAKRNYDVKIEQMNGQWVVTAS | 2.03
40 | EIHIRTNGEEQARKVYKMLAKRNYDVKIEQSNGQWVVTAS | 1.78
41 | EIHIRTNGEEQARKVYKMLAKRNYDVKIEQNNGQWVVTAS | 1.72
42 | EIHIRTNGEEQARKVYKMLAKRNYDVKIEQGNGQWVVTAS | 0.849

Row | Variant | folding stability dG [kcal/mol]
43 | EIHIRTNGEEQARKVYKMLAKRNYDVKIEQLNGQWVVTAS | 2.12
44 | EIHIRTNGEEQARKVYKMLAKRNYDVKIEQQNGQWVVTAS | 1.95
45 | EIHIRTNGEEQARKVYKMLAKRNYDVKIEQCNGQWVVTAS | 2.09
46 | EIHIRTNGEEQARKVYKMLAKRNYDVKIEQYNGQWVVTAS | 2.03
47 | EIHIRTNGEEQARKVYKMLAKRNYDVKIEQPNGQWVVTAS | 0.168
48 | EIHIRTNGEEQARKVYKMLAKRNYDVKIEQRNGQWVVTAS | 1.98
49 | EIHIRTNGEEQARKVYKMLAKRNYDVKIEQENGQWVVTAS | 1.85
50 | EIHIRTNGEEQARKVYKMLAKRNYDVKIEQVNGQWVVTAS | 2.24
51 | EIHIRTNGEEQARKVYKMLAKRNYDVKIEQKNGQWVVTAS | 2.04
52 | EIHIRTNGEEQARKVYKMLAKRNYDVKIEQWNGQWVVTAS | 2.15
53 | EIHIRTNGEEQARKVYKMLAKRNYDVKIEQANGQWVVTAS | 1.67
54 | EIHIRTNGEEQARKVYKMLAKRNYDVKIEQTNGQWVVTAS | 1.71
55 | EIHIRTNGEEQARKVYKMLAKRNYDVKIEQDNGQWVVTAS | 1.78
56 | EIHIRTNGEEQARKVYKMLAKRNYVVKIEQHNGQWVVTAS | 2.31
57 | EIHIRTNGEEQARKVYKMLAKRNYTVKIEQHNGQWVVTAS | 2.25
58 | EIHIRTNGEEQARKVYKMLAKRNYRVKIEQHNGQWVVTAS | 2.25
59 | EIHIRTNGEEQARKVYKMLAKRNYQVKIEQHNGQWVVTAS | 2.23
60 | EIHIRTNGEEQARKVYKMLAKRNYSVKIEQHNGQWVVTAS | 1.99
61 | EIHIRTNGEEQARKVYKMLAKRNYYVKIEQHNGQWVVTAS | 2.09
62 | EIHIRTNGEEQARKVYKMLAKRNYWVKIEQHNGQWVVTAS | 1.89
